Here are results for 3 molecules from patent publication US20230242640A1 (OSE IMMUNOTHERAPEUTICS, published 2023).

B1: anti-SIRPg antibody A1 (antibody, human IgG4 S228P, kappa, V domains shown)
VH: EVQLVESGGGVVRPGGSLRLSCAASGFTFDDYGMSWVRQAPGKGLEWVSGINWNGGSTGYADSVKGRFTISRDNAKNSLYLQMNSLRAEDTAVYYCARWIAKVWGQGTLVTVSR
VL: SSELTQDPAVSVALGQTVRITCQGDSLRSYYASWYQQKPGQAPVLVIYGKNNRPSGIPDRFSGSSSGNTASLTITGAQAEDEADYYCNSRDSSGNHVVFGGGTKLTVLR
notes: human IgG4 S228P, kappa constant; also called VHA1-hFcG4 + VL-CLkappa
B2: anti-SIRPg antibody A8 (antibody, human IgG4 S228P, kappa, V domains shown)
VH: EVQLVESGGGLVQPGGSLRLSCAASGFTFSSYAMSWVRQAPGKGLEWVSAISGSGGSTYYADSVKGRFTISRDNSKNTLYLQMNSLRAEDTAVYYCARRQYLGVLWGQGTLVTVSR
VL: B1 VL
notes: human IgG4 S228P, kappa constant; also called VHA8-hFcG4 + VL-CLkappa
B3: anti-SIRPg antibody A5 (antibody, human IgG4 S228P, kappa, V domains shown)
VH: B1 VH with W99Q, I100M, A101V, V103L
VL: B1 VL
notes: human IgG4 S228P, kappa constant; also called VHA5-hFcG4 + VL-CLkappa

Residue numbers refer to the chain shown, from its start. Numbers in names are those of the source.

T1 sequence (Q9P1W8 29-360): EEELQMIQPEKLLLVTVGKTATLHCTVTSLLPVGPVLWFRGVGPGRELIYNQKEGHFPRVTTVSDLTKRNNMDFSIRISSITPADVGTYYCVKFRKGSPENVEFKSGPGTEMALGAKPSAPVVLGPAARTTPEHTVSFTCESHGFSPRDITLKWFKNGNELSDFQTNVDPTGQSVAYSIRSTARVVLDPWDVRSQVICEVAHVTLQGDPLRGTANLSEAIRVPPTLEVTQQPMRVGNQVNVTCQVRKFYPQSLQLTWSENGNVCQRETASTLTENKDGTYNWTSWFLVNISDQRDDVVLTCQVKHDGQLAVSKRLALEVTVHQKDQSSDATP

The first assay addresses T1, recombinant hSIRPg-His (Sino Biologicals reference 11828-H08H) (human, UniProt Q9P1W8 29-360).
T1 construct: Bought protein; also called protein SIRPg-His; SIRP-gamma
The experiment in a line: ELISA on coated SIRPg-His. The method, then: For activity ELISA assay, recombinant hSIRPg (Sino Biologicals, Beijing, China; reference 11828-H08H) or hSIRPa (Sino Biologicals, Beijing, China; reference 11612-H08H) was immobilized on plastic at 1 µg/ml (hSIRPg) or 0.5 µg/ml (hSIRPa) in carbonate buffer (pH9.2) and purified antibody were added to measure binding.
In general terms: In an ELISA, binding on a coated surface is turned into a signal by an enzyme label.
As to B1, the binding result is recorded as “binds”.

With B2, the binding result is on record as “binds”.

On to B3, for which the binding result is “binds”.

For a further assay, the target named is T2, protein SIRPb-His (human, UniProt Q5TFQ8 30-371).
T2 construct: The methods give no supplier for SIRPb-His; also called hSIRPb-his
T2 sequence (Q5TFQ8 30-371): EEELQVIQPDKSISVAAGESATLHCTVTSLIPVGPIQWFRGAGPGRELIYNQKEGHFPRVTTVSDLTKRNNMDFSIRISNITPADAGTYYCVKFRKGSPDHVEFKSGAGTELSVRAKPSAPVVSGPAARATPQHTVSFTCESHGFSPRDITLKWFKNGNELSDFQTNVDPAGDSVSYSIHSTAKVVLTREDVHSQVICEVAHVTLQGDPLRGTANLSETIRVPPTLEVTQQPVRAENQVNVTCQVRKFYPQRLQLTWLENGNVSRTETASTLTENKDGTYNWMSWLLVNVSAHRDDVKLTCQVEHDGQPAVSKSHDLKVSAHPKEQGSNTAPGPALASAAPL
The experiment in a line: ELISA on coated SIRPb-His. An excerpt:
FIG. 2. Binding on SIRPg, SIRPa and SIRPb ELISA assay (protein SIRPa/b/g-His coated and anti-human peroxidase detection). Binding analysis of antibodies A1, A5 and A8, and prior art antibody Kwar23.
Consider B1, for which the binding result is recorded as “no binding”.

In the case of B2, the binding result is “no binding”.

On to B3, for which the binding result is “no binding”.
